This is an account of results in the supplement of paper PMC10567573.

± gives the standard deviation.

The nature of this data set: protein stability index of a GFP-peptide fusion (GPS, HEK-293T) (PSI 1-6); higher = more stable. The following applies: c terminus: a fixed tail appended.
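Note: 24-mer peptide tiles fused after GFP, lentivirally expressed, FACS-sorted into six equal bins by GFP/DsRed ratio, decoded by Illumina sequencing, PSI is the read-weighted mean bin number.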

The sequence FKHPSIRNPVSLVVTRLVILGSGE [ADAMTS4] showed a protein stability index (treatment: MLN4924 1 uM, 8 h) of 3.03 ± 0.97. Sequence FKRRRVRRRRMETIVFLDKEVFAS [PCMTD2] yielded a protein stability index (treatment: DMSO) of 2.62 ± 0.16 and a protein stability index (treatment: MLN4924 1 uM, 8 h) of 2.86 ± 0.33. FLPHHIMVKIFRLLPTKSLVALKC [FBXO34]: the protein stability index amounted to 2.76 ± 0.39 (treatment: DMSO) and 2.29 ± 0.74 (treatment: MLN4924 1 uM, 8 h). Taken in the same sequence, the figures for FLRQKVLSLPLPDPLKYYLLYYRE [PCMTD2] were 2.24 ± 0.34 and 2.26 ± 0.31. For the sequence FLSSEKQICGTHRQTKKMFCDMDK [TRIM43], the protein stability index by setting is: (treatment: DMSO) 3.18 ± 0.33; (treatment: MLN4924 1 uM, 8 h) 3.4 ± 0.19. For the sequence FLTVGSVLQMWHIVDKCTELLREG [ZBTB22], the protein stability index was found to be 3.09 ± 0.55 (treatment: DMSO) and 3.4 ± 0.32 (treatment: MLN4924 1 uM, 8 h). The like results for FLTYVPLLGLKAFLGLFFIVRFLE [FADS1] were, in that order, 2.56 ± 0.6 and 2.17 ± 0.67. Sequence FNDPFFIVETVCIVWFSFEFVVRC [KCNA4] displayed a protein stability index (treatment: DMSO) of 3.38 ± 0.68 and a protein stability index (treatment: MLN4924 1 uM, 8 h) of 3.45 ± 0.98. In the case of FPHPLWLRDTYKLWVPQPPPRTIK [PWWP2B], the protein stability index (treatment: DMSO) amounted to 2.33 ± 0.17 and the protein stability index (treatment: MLN4924 1 uM, 8 h) was determined as 2.71 ± 0.33. The like results for FQEDVPMSTEEQYRIRQVNIYYYL [EFHC1] were, in that order, 2.52 ± 0.78 and 2.22 ± 0.15. FQKSLVLISKLPYIHFFHTVLKQI [DENND6A]: the protein stability index amounted to 2.67 ± 0.72 (treatment: DMSO) and 2.42 ± 0.63 (treatment: MLN4924 1 uM, 8 h).

As for FRKEIKSKSADNQEYFERHRWPPV [RHOBTB1], the protein stability index (treatment: DMSO) was 3.45 ± 0.44 and the protein stability index (treatment: MLN4924 1 uM, 8 h) was found to be 3.26 ± 0.16. With FSDVTFILDDGTISAHKPLLISSC [RHOBTB2], the protein stability index by setting is: (treatment: DMSO) 2.47 ± 0.15; (treatment: MLN4924 1 uM, 8 h) 2.25 ± 0.29.

Sequence FSKVKTSLGLDHCHSFISGTAPLN [ACSBG2] returned a protein stability index (treatment: DMSO) of 2.52 ± 0.3 and a protein stability index (treatment: MLN4924 1 uM, 8 h) of 2.44 ± 0.29. As to FSPNSPQFNVSGPGLLEEDNQWMT [NECAB1], the protein stability index reads like this: (treatment: DMSO) 3.23 ± 0.34; (treatment: MLN4924 1 uM, 8 h) 3.58 ± 0.3. As to FSRAPVSALPLAPNHLGGGAVVLG [STX5], the protein stability index amounted to 2.81 ± 0.11 (treatment: DMSO) and 2.98 ± 0.17 (treatment: MLN4924 1 uM, 8 h). Take FSTILHLLLGSPHPAATALHAELC [LPCAT4]: the protein stability index was found to be 3.14 ± 0.47 (treatment: DMSO) and 2.73 ± 0.53 (treatment: MLN4924 1 uM, 8 h). In the case of FTDCSFFVRGQEFKAHKSVLAARS [SPOPL], the protein stability index was 2.95 ± 0.69 (treatment: DMSO) and 2.61 ± 0.57 (treatment: MLN4924 1 uM, 8 h). Take FVGAIFNGLTLLILGVIGLFTIPL [RTN2]: the protein stability index (treatment: DMSO) worked out at 2.02 ± 0.11 and the protein stability index (treatment: MLN4924 1 uM, 8 h) amounted to 2.27 ± 0.42. On to FVVMGVIGGLLGATFNCLNKRLAK [CLCN6], for which the protein stability index (treatment: DMSO) is 2.55 ± 0.39 and the protein stability index (treatment: MLN4924 1 uM, 8 h) turned out to be 2.7 ± 0.59. FWEEHKASLGREESRAPSPLLHKD [CBY2]: the protein stability index reads like this: (treatment: DMSO) 4.61 ± 0.17; (treatment: MLN4924 1 uM, 8 h) 4.71 ± 0.21. Take FYAITTLHNLLLHQEGAKMAVRLA [CTNNB1]: the protein stability index reads like this: (treatment: DMSO) 3.02 ± 0.17; (treatment: MLN4924 1 uM, 8 h) 2.79 ± 0.15. Taken in the same sequence, the figures for GADREFIEARRRALKRFVNLVARH [SNX8] were 2.45 ± 0.15 and 2.64 ± 0.25. For GAQMEKEWARALETRDWGGAQFEG [ZSWIM9], the protein stability index stood at 4.11 ± 0.26 (treatment: DMSO) and 4.22 ± 0.1 (treatment: MLN4924 1 uM, 8 h). Turning to GDFAWERVRGLGLPKLYLPTGPRR [CDKN1A], the protein stability index runs as follows: (treatment: DMSO) 2.98 ± 0.32; (treatment: MLN4924 1 uM, 8 h) 3.32 ± 0.4. With GEDQAFGDWLLTANGSEIHKHVHF [SLC22A15], the protein stability index (treatment: DMSO) is 3.03 ± 0.26 and the protein stability index (treatment: MLN4924 1 uM, 8 h) amounted to 3.09 ± 0.26. Taken in the same sequence, the figures for GEEPVPHQQVEEALSFTLLGSAPL [NEK8] were 4.33 ± 0.22 and 4.32 ± 0.29. As for GEEQAQLLHVSSPNLASDSDLSRR [KCNA1], the protein stability index (treatment: DMSO) was 5.36 ± 0.16 and the protein stability index (treatment: MLN4924 1 uM, 8 h) is 5.33 ± 0.11. As for GEEQLKTHKKCKEEVVSTLDAVQV [FCHO1], the protein stability index by setting is: (treatment: DMSO) 4.13 ± 0.38; (treatment: MLN4924 1 uM, 8 h) 4.12 ± 0.19. Regarding GEKMVAAKVKGEKLDKKLKKMEQN [ATF4], the protein stability index by setting is: (treatment: DMSO) 5 ± 0.27; (treatment: MLN4924 1 uM, 8 h) 4.76 ± 0.18. The like results for GELLNMIVAVIDSAQLQELVCHVM [INTS3] were, in that order, 2.92 ± 0.59 and 2.6 ± 0.72.

Take GELRRRPGDMKTKMELLILETQAQ [CPOX]: the protein stability index is 3.34 ± 0.18 (treatment: DMSO) and 3.43 ± 0.26 (treatment: MLN4924 1 uM, 8 h). In turn, GETRICKIYDSPCLPEAEAMFAIN [RAD51] yielded a protein stability index (treatment: DMSO) of 3.53 ± 0.4 and a protein stability index (treatment: MLN4924 1 uM, 8 h) of 3.65 ± 0.35. As to GFFLLQLANHTGYIKVDWQRVEKD [FUNDC2], the protein stability index was determined as 2.34 ± 0.69 (treatment: DMSO) and 2.11 ± 0.37 (treatment: MLN4924 1 uM, 8 h). Take GFGLAHTPLEPDAKDLPCDSKPES [TBX5]: the protein stability index is, setting by setting: (treatment: DMSO) 5.38 ± 0.51; (treatment: MLN4924 1 uM, 8 h) 5.47 ± 0.43. Take GFIRFDKRIEAEEAIKGLNGQKPL [ELAVL3]: the protein stability index turned out to be 3.66 ± 0.42 (treatment: DMSO) and 4.08 ± 0.49 (treatment: MLN4924 1 uM, 8 h).

GGAAGAGWCIFVYNLSPEADESVL [ELAVL3] displayed a protein stability index (treatment: DMSO) of 3.22 ± 1.1 and a protein stability index (treatment: MLN4924 1 uM, 8 h) of 2.52 ± 0.91.
